Assay results reported in patent publication US20080138335A1 (Kyowa Kirin, published 2008).

Molecular target: T1, CD40 expressed on Ramos [ATCC] cells (UniProt P25942 21-277, limits assumed)
T1 construct: whole, on cells; Target of all flow cytometry and CD95 assays; endogenous CD40 on the Ramos cell line
Test: flow cytometry (FACS) on Ramos cells expressing CD40, R-PE anti-human antibody

T1 sequence (P25942 21-277 limits assumed): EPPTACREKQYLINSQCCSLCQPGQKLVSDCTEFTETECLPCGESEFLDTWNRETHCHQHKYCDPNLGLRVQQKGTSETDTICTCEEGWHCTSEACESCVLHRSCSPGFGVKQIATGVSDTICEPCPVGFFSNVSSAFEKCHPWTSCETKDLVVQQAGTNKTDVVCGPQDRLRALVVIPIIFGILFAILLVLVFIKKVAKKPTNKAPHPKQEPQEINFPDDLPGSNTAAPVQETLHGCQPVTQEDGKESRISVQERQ

binding result | Binder
binds | 4D11-G3[M397V] (antibody, V domains shown, One-amino acid variant of 4D11-G3, made on N5KG3-4D11; also called N5KG3-M397V; 4D11-G[M397V]; not shown: human IgG3 heavy chain constant region, from vector N5KG3-4D11) VH: QLQLQESGPGLLKPSETLSLTCTVSGGSISSPGYYGGWIRQPPGKGLEWIGSIYKSGSTYHNPSLKSRVTISVDTSKNQFSLKLSSVTAADTAVYYCTRPVVRYFGWFDPWGQGTLVTVSS VL: AIQLTQSPSSLSASVGDRVTITCRASQGISSALAWYQQKPGKAPKLLIYDASNLESGVPSRFSGSGSGTDFTLTISSLQPEDFATYYCQQFNSYPTFGQGTKVEIK
binds | 4D11-G[3331] (antibody, V domains shown, also called IgG[3/3/3/1]; N5KG3331; not shown: human IgG3 heavy chain constant region, CH1, hinge and CH2 domains (EU 118-340), from vector N5KG3; human IgG1 heavy chain constant region, CH3 domain (EU 341-446), from vector N5KG1) VH: QLQLQESGPGLLKPSETLSLTCTVSGGSISSPGYYGGWIRQPPGKGLEWIGSIYKSGSTYHNPSLKSRVTISVDTSKNQFSLKLSSVTAADTAVYYCTRPVVRYFGWFDPWGQGTLVTVSS VL: AIQLTQSPSSLSASVGDRVTITCRASQGISSALAWYQQKPGKAPKLLIYDASNLESGVPSRFSGSGSGTDFTLTISSLQPEDFATYYCQQFNSYPTFGQGTKVEIK
binds | 4D11-G3[N392K] (antibody, V domains shown, One-amino acid variant of 4D11-G3; also called IgG3[N392K]; N5KG3-N392K; not shown: human IgG3 heavy chain constant region, from vector N5KG3) VH: QLQLQESGPGLLKPSETLSLTCTVSGGSISSPGYYGGWIRQPPGKGLEWIGSIYKSGSTYHNPSLKSRVTISVDTSKNQFSLKLSSVTAADTAVYYCTRPVVRYFGWFDPWGQGTLVTVSS VL: AIQLTQSPSSLSASVGDRVTITCRASQGISSALAWYQQKPGKAPKLLIYDASNLESGVPSRFSGSGSGTDFTLTISSLQPEDFATYYCQQFNSYPTFGQGTKVEIK
binds | 341-G2Ser[Q274K] (antibody, human IgG2, kappa, Made from the 341-G2Ser expression vector; also called N5KG2Ser-341-Q274K) heavy: QVQLQQSGPGLVKPSQTLSLTCAISGDSVSSNSATWNWIRQSPSRDLEWLGRTYYRSKWYRDYVGSVKSRIIINPDTSNNQFSLQLNSVTPEDTAIYYCTRAQWLGGDYPYYYSMDVWGQGTTVTVSSASTKGPSVFPLAPCSRSTSESTAALGCLVKDYFPEPVTVSWNSGALTSGVHTFPAVLQSSGLYSLSSVVTVPSSNFGTQTYTCNVDHKPSNTKVDKTVERKCCVECPPCPAPPVAGPSVFLFPPKPKDTLMISRTPEVTCVVVDVSHEDPEVKFNWYVDGVEVHNAKTKPREEQFNSTFRVVSVLTVVHQDWLNGKEYKCKVSNKGLPASIEKTISKTKGQPREPQVYTLPPSREEMTKNQVSLTCLVKGFYPSDIAVEWESNGQPENNYKTTPPMLDSDGSFFLYSKLTVDKSRWQQGNVFSCSVMHEALHNHYTQKSLSLSPGK light: not shown
binds | 341-G2Ser[V309L] (antibody, human IgG2, kappa, Made from the 341-G2Ser expression vector; also called N5KG2Ser-341-V309L) heavy: QVQLQQSGPGLVKPSQTLSLTCAISGDSVSSNSATWNWIRQSPSRDLEWLGRTYYRSKWYRDYVGSVKSRIIINPDTSNNQFSLQLNSVTPEDTAIYYCTRAQWLGGDYPYYYSMDVWGQGTTVTVSSASTKGPSVFPLAPCSRSTSESTAALGCLVKDYFPEPVTVSWNSGALTSGVHTFPAVLQSSGLYSLSSVVTVPSSNFGTQTYTCNVDHKPSNTKVDKTVERKCCVECPPCPAPPVAGPSVFLFPPKPKDTLMISRTPEVTCVVVDVSHEDPEVQFNWYVDGVEVHNAKTKPREEQFNSTFRVVSVLTVLHQDWLNGKEYKCKVSNKGLPASIEKTISKTKGQPREPQVYTLPPSREEMTKNQVSLTCLVKGFYPSDIAVEWESNGQPENNYKTTPPMLDSDGSFFLYSKLTVDKSRWQQGNVFSCSVMHEALHNHYTQKSLSLSPGK light: not shown
binds | 341-G2Ser[F296Y] (antibody, human IgG2, kappa, Made from the 341-G2Ser expression vector; also called N5KG2Ser-341-F296Y) heavy: QVQLQQSGPGLVKPSQTLSLTCAISGDSVSSNSATWNWIRQSPSRDLEWLGRTYYRSKWYRDYVGSVKSRIIINPDTSNNQFSLQLNSVTPEDTAIYYCTRAQWLGGDYPYYYSMDVWGQGTTVTVSSASTKGPSVFPLAPCSRSTSESTAALGCLVKDYFPEPVTVSWNSGALTSGVHTFPAVLQSSGLYSLSSVVTVPSSNFGTQTYTCNVDHKPSNTKVDKTVERKCCVECPPCPAPPVAGPSVFLFPPKPKDTLMISRTPEVTCVVVDVSHEDPEVQFNWYVDGVEVHNAKTKPREEQYNSTFRVVSVLTVVHQDWLNGKEYKCKVSNKGLPASIEKTISKTKGQPREPQVYTLPPSREEMTKNQVSLTCLVKGFYPSDIAVEWESNGQPENNYKTTPPMLDSDGSFFLYSKLTVDKSRWQQGNVFSCSVMHEALHNHYTQKSLSLSPGK light: not shown
binds | 341-G2Ser[F300Y] (antibody, human IgG2, kappa, Made from the 341-G2Ser expression vector; also called N5KG2Ser-341-F300Y) heavy: QVQLQQSGPGLVKPSQTLSLTCAISGDSVSSNSATWNWIRQSPSRDLEWLGRTYYRSKWYRDYVGSVKSRIIINPDTSNNQFSLQLNSVTPEDTAIYYCTRAQWLGGDYPYYYSMDVWGQGTTVTVSSASTKGPSVFPLAPCSRSTSESTAALGCLVKDYFPEPVTVSWNSGALTSGVHTFPAVLQSSGLYSLSSVVTVPSSNFGTQTYTCNVDHKPSNTKVDKTVERKCCVECPPCPAPPVAGPSVFLFPPKPKDTLMISRTPEVTCVVVDVSHEDPEVQFNWYVDGVEVHNAKTKPREEQFNSTYRVVSVLTVVHQDWLNGKEYKCKVSNKGLPASIEKTISKTKGQPREPQVYTLPPSREEMTKNQVSLTCLVKGFYPSDIAVEWESNGQPENNYKTTPPMLDSDGSFFLYSKLTVDKSRWQQGNVFSCSVMHEALHNHYTQKSLSLSPGK light: not shown
binds | 341-G2Ser[T339A] (antibody, human IgG2, kappa, Made from the 341-G2Ser expression vector; also called N5KG2Ser-341-T339A) heavy: QVQLQQSGPGLVKPSQTLSLTCAISGDSVSSNSATWNWIRQSPSRDLEWLGRTYYRSKWYRDYVGSVKSRIIINPDTSNNQFSLQLNSVTPEDTAIYYCTRAQWLGGDYPYYYSMDVWGQGTTVTVSSASTKGPSVFPLAPCSRSTSESTAALGCLVKDYFPEPVTVSWNSGALTSGVHTFPAVLQSSGLYSLSSVVTVPSSNFGTQTYTCNVDHKPSNTKVDKTVERKCCVECPPCPAPPVAGPSVFLFPPKPKDTLMISRTPEVTCVVVDVSHEDPEVQFNWYVDGVEVHNAKTKPREEQFNSTFRVVSVLTVVHQDWLNGKEYKCKVSNKGLPASIEKTISKAKGQPREPQVYTLPPSREEMTKNQVSLTCLVKGFYPSDIAVEWESNGQPENNYKTTPPMLDSDGSFFLYSKLTVDKSRWQQGNVFSCSVMHEALHNHYTQKSLSLSPGK light: not shown
binds | 341-G2Ser[G327A] (antibody, human IgG2, kappa, Made from the 341-G2Ser expression vector; also called N5KG2Ser-341-G327A) heavy: QVQLQQSGPGLVKPSQTLSLTCAISGDSVSSNSATWNWIRQSPSRDLEWLGRTYYRSKWYRDYVGSVKSRIIINPDTSNNQFSLQLNSVTPEDTAIYYCTRAQWLGGDYPYYYSMDVWGQGTTVTVSSASTKGPSVFPLAPCSRSTSESTAALGCLVKDYFPEPVTVSWNSGALTSGVHTFPAVLQSSGLYSLSSVVTVPSSNFGTQTYTCNVDHKPSNTKVDKTVERKCCVECPPCPAPPVAGPSVFLFPPKPKDTLMISRTPEVTCVVVDVSHEDPEVQFNWYVDGVEVHNAKTKPREEQFNSTFRVVSVLTVVHQDWLNGKEYKCKVSNKALPASIEKTISKTKGQPREPQVYTLPPSREEMTKNQVSLTCLVKGFYPSDIAVEWESNGQPENNYKTTPPMLDSDGSFFLYSKLTVDKSRWQQGNVFSCSVMHEALHNHYTQKSLSLSPGK light: not shown
